Measured values published in PMC5072837.
Where “and” joins values, the source holds several entries; their conditions need not be identical. Identical values can stand only once.

Columns and labels:
[1] = target: FliD lacking the C-terminal coiled-coil domain (FliD_(1–405)) from the P. aeruginosa PAO1 strain (Pseudomonas aeruginosa PAO1) (UniProt Q9K3C5); assay: cross-linking; about 0.4 mg/mL protein, 20 mM EDC and 20 mM NHS, various time points; silver-stained SDS-PAGE
[2] = target: FliD lacking the N-terminal coiled-coil domain (FliD_(78–474)) from the P. aeruginosa PAO1 strain (Pseudomonas aeruginosa PAO1) (UniProt Q9K3C5); assay: as above
[3] = target: FliD_(1–474(I167C/D253C)) produced by Pseudomonas (complementation strain ΔfliD/fliD_(1–474(I167C/D253C))) (Pseudomonas aeruginosa PAO1) (UniProt Q9K3C5); assay: Western blot after non-reducing SDS-PAGE; flagella sheared off live bacteria, supernatant concentrated; detected with anti-FliD scFv-Fc SH1579-B7
[4] = target: FliD_(78–405) from the P. aeruginosa PAO1 strain, made as a GST fusion and cleaved (Pseudomonas aeruginosa PAO1) (UniProt Q9K3C5); assay: negative stain EM with class averaging; 2% uranyl acetate, about 3500 particles, class averages in EMAN2
[5] = target: FliD_(78–405) from the P. aeruginosa PAO1 strain, made as a GST fusion and cleaved (Pseudomonas aeruginosa PAO1) (UniProt Q9K3C5); assay: cross-linking; about 0.4 mg/mL protein, 20 mM EDC and 20 mM NHS, various time points; silver-stained SDS-PAGE
[6] = target: FliD_(78–405) from the P. aeruginosa PAO1 strain, made as a GST fusion and cleaved (Pseudomonas aeruginosa PAO1) (UniProt Q9K3C5); assay: AUC; sedimentation velocity, 20°C, 30 mM Tris, 80 mM NaCl, pH 8.0; 295 μM FliD78–405, 124 μM FliD78–273, 168 μM FliD1–474
[7] = target: FliD_(78–405) from the P. aeruginosa PAO1 strain, made as a GST fusion and cleaved (Pseudomonas aeruginosa PAO1) (UniProt Q9K3C5); assay: SAXS; 30 mM Tris pH 8.0, 80 mM NaCl; three concentrations of each protein; envelopes by DAMMIF with superimposed crystal structures
[8] = target: FliD_(78–405) from the P. aeruginosa PAO1 strain, made as a GST fusion and cleaved (Pseudomonas aeruginosa PAO1) (UniProt Q9K3C5); assay: AUC; sedimentation velocity, 20°C, 20 mM sodium citrate, 80 mM NaCl, pH 5.0; 325 μM FliD78–405, 124 μM FliD78–273, 168 μM FliD1–474
[9] = target: FliD_(78–405) from the P. aeruginosa PAO1 strain, with N-terminal His6-tag (crystallized construct) (Pseudomonas aeruginosa PAO1) (UniProt Q9K3C5); assay: crystal structure; His6-FliD78–405 crystals grown in 0.8 M NaK Tartrate, 0.1 M Hepes pH 7.5; 2.2 Å; P6 space group
[10] = target: full-length FliD_(1–474) from the P. aeruginosa PAO1 strain (Pseudomonas aeruginosa PAO1) (UniProt Q9K3C5); assay: AUC; sedimentation velocity, 4 μM FliD1–474 in 30 mM Tris, 80 mM NaCl, pH 8.0
[11] = target: full-length FliD_(1–474) from the P. aeruginosa PAO1 strain (Pseudomonas aeruginosa PAO1) (UniProt Q9K3C5); assay: cross-linking; about 0.4 mg/mL protein, 20 mM EDC and 20 mM NHS, various time points; silver-stained SDS-PAGE
[12] = target: full-length FliD_(1–474) from the P. aeruginosa PAO1 strain (Pseudomonas aeruginosa PAO1) (UniProt Q9K3C5); assay: AUC; sedimentation velocity, 20°C, 30 mM Tris, 80 mM NaCl, pH 8.0; 295 μM FliD78–405, 124 μM FliD78–273, 168 μM FliD1–474
[13] = target: full-length FliD_(1–474) from the P. aeruginosa PAO1 strain (Pseudomonas aeruginosa PAO1) (UniProt Q9K3C5); assay: AUC; sedimentation velocity, 20°C, 20 mM sodium citrate, 80 mM NaCl, pH 5.0; 325 μM FliD78–405, 124 μM FliD78–273, 168 μM FliD1–474
[14] = target: head domain-only FliD (FliD_(78–273)) from the P. aeruginosa PAO1 strain (Pseudomonas aeruginosa PAO1) (UniProt Q9K3C5); assay: cross-linking; about 0.4 mg/mL protein, 20 mM EDC and 20 mM NHS, various time points; silver-stained SDS-PAGE
[15] = target: head domain-only FliD (FliD_(78–273)) from the P. aeruginosa PAO1 strain (Pseudomonas aeruginosa PAO1) (UniProt Q9K3C5); assay: SAXS; 30 mM Tris pH 8.0, 80 mM NaCl; three concentrations of each protein; envelopes by DAMMIF with superimposed crystal structures
[16] = target: head domain-only FliD (FliD_(78–273)) from the P. aeruginosa PAO1 strain (Pseudomonas aeruginosa PAO1) (UniProt Q9K3C5); assay: AUC; sedimentation velocity, 20°C, 20 mM sodium citrate, 80 mM NaCl, pH 5.0; 325 μM FliD78–405, 124 μM FliD78–273, 168 μM FliD1–474
[17] = target: stable hexameric full-length FliD mutant FliD_(1–474(I167C/D253C)), purified recombinant protein (Pseudomonas aeruginosa PAO1) (UniProt Q9K3C5); assay: SDS-PAGE under non-reducing conditions; purified FliD1–474(I167C/D253C), reducing against non-reducing conditions
[18] = target: stable hexameric full-length FliD mutant FliD_(1–474(I167C/D253C)), purified recombinant protein (Pseudomonas aeruginosa PAO1) (UniProt Q9K3C5); assay: SAXS; 30 mM Tris pH 8.0, 80 mM NaCl; three concentrations of each protein; envelopes by DAMMIF with superimposed crystal structures

FliD lacking the C-terminal coiled-coil domain (FliD_(1–405)) from the P. aeruginosa PAO1 strain (from UniProt Q9K3C5 1-405) (domain or fragment)
stoichiometry N [1]: 2

FliD lacking the N-terminal coiled-coil domain (FliD_(78–474)) from the P. aeruginosa PAO1 strain (from UniProt Q9K3C5 78-474) (domain or fragment)
stoichiometry N [2]: 2

FliD_(1–474(I167C/D253C)) produced by Pseudomonas (complementation strain ΔfliD/fliD_(1–474(I167C/D253C))) (from UniProt Q9K3C5 1-474) (natural protein)
stoichiometry N [3]: 6

FliD_(78–405) from the P. aeruginosa PAO1 strain, made as a GST fusion and cleaved (from UniProt Q9K3C5 78-405) (domain or fragment)
stoichiometry N [4]: 6 | stoichiometry N [5]: < 12 | stoichiometry N [6]: 12 | stoichiometry N [7]: 12 | stoichiometry N [8]: 12

FliD_(78–405) from the P. aeruginosa PAO1 strain, with N-terminal His6-tag (crystallized construct) (from UniProt Q9K3C5 78-405) (domain or fragment)
stoichiometry N [9]: 6 and 12

full-length FliD_(1–474) from the P. aeruginosa PAO1 strain (from UniProt Q9K3C5 1-474) (natural protein)
stoichiometry N [10]: 2 | stoichiometry N [11]: < 6 | stoichiometry N [12]: 4 and 6 | stoichiometry N [13]: 4 and 6

head domain-only FliD (FliD_(78–273)) from the P. aeruginosa PAO1 strain (from UniProt Q9K3C5 78-273) (domain or fragment)
stoichiometry N [14]: 2 | stoichiometry N [15]: 2 | stoichiometry N [16]: 2

stable hexameric full-length FliD mutant FliD_(1–474(I167C/D253C)), purified recombinant protein (from UniProt Q9K3C5 1-474) (natural protein)
stoichiometry N [17]: 6 | stoichiometry N [18]: 6
